The target in this assay is CD33 naturally expressed on HL60 cells (human, UniProt P20138 18-364). Kind of assay: FACS. (A flow cytometer gives signals particle by particle.)

From patent US20250206823A1 (published 2025) come the findings set out here.

In general, EC50 refers to the concentration needed to bring the measured effect to its halfway point. Read a low EC50 as greater potency.

Chain of CD33 naturally expressed on HL60 cells (P20138 18-364): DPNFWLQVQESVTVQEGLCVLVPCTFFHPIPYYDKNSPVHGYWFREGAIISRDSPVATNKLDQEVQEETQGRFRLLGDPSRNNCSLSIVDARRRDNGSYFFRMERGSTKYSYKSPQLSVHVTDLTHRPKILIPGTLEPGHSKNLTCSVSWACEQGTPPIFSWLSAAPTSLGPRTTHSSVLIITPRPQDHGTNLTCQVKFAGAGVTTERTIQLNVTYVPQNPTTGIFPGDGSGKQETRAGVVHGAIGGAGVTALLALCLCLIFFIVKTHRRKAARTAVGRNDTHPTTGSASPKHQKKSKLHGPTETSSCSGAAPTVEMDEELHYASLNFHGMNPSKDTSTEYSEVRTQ

B1: CD33/CD16A bispecific antibody QP411543674368 (FC with L234A/L235A mutation for eliminating function) (bispecific antibody)
scFv: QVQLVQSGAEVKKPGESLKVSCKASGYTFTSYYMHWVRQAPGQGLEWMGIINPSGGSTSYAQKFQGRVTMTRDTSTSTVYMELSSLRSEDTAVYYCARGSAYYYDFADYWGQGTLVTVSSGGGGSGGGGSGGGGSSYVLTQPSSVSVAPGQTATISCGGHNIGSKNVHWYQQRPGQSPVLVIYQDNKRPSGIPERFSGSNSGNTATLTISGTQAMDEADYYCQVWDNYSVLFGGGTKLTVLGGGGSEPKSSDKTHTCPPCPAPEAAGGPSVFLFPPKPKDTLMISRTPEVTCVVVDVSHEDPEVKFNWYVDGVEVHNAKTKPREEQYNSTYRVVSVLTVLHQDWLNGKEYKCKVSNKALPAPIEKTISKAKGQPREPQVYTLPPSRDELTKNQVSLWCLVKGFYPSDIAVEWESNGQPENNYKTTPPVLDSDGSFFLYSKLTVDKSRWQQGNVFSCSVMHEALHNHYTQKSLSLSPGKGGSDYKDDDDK
heavy: QVQLVQSGAEVKKPGESVKVSCKASGYTFTNYGMNWVKQAPGQGLEWMGWINTYTGEPTYADKFQGRVTMTTDTSTSTAYMEIRNLGGDDTAVYYCARWSWSDGYYVYFDYWGQGTSVTVSSASTKGPSVFPLAPSSKSTSGGTAALGCLVKDYFPEPVTVSWNSGALTSGVHTFPAVLQSSGLYSLSSVVTVPSSSLGTQTYICNVNHKPSNTKVDKKVEPKSCDKTHTCPPCPAPEAAGGPSVFLFPPKPKDTLMISRTPEVTCVVVDVSHEDPEVKFNWYVDGVEVHNAKTKPREEQYNSTYRVVSVLTVLHQDWLNGKEYKCKVSNKALPAPIEKTISKAKGQPREPQVYTLPPSREEMTKNQVSLSCAVKGFYPSDIAVEWESNGQPENNYKTTPPVLDSDGSFFLVSKLTVDKSRWQQGNVFSCSVMHEALHNRYTQKSLSLSPGKGGSHHHHHH
light: DIVMTQSPDSLTVSLGERTTINCKSSQSVLDSSTNKNSLAWYQQKPGQPPKLLLSWASTRESGIPDRFSGSGSGTDFTLTIDSPQPEDSATYYCQQSAHFPITFGQGTRLEIKRTVAAPSVFIFPPSDEQLKSGTASVVCLLNNFYPREAKVQWKVDNALQSGNSQESVTEQDSKDSTYSLSSTLTLSKADYEKHKVYACEVTHQGLSSPVTKSFNRGEC
Take B1: the EC50 turned out to be 0.0114 µM.
